From the RNAGym collection of RNA variant scans (doi:10.1073/pnas.2313332121)

B1: TPR t1 (parent)
chain: GACCAAUCUGCCCUCAGAGCUCGAGAACAUCUUCGGAUGCAGAGGAGGCAGGCUUCGGUGGCGCGAUAGCGCCAACGUCCUCAACCUCCAAUGCAUCCCACCACAUGAUGAUGCCUGAAGAGCCUUGGUUUUUUG

Variants of: B1
Test: polymerase ribozyme fitness, log enrichment relative to wild type (log ratio); higher = more active; in vitro selection for triplet polymerase activity
Outline: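 Streptavidin-bead capture of gel-excised extended constructs, followed by RT-PCR, closed a single triplicate in vitro selection round. That round began by annealing PCR-built, transcribed mutant libraries of each subunit of a heterodimeric triplet polymerase ribozyme with a biotinylated primer, the partner subunit and triplets, then incubating them frozen at −7 °C. After Illumina sequencing of inputs and outputs, genotypes needed ≥10 input reads and ≥1 read per output. Fitness is the base-2 logarithm of genotype enrichment over wild-type enrichment, using inverse-variance-weighted replicate averages.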

Row | Variant | polymerase ribozyme fitness (log ratio)
1 | GACAAAUCUGCCCUCAGCGCUCGAGAACAUCUUCGGAUGCAGUGGAGGCAGGCUUCGGUGGCGCGAUAGCGACAACGUCCUCAACCUCCAAUGCAUCCCACCACAUGAUGAUGCCUGAAGAGCCUUGGUUUUUUG | -3.77
2 | GAUCAAUCUGCCCUCAGAGCUCGAGAACAUCUUCGGAUGCAGAGGAGGCAGGCUGCGGUGGCGCGAUAGCGCCAACGUCCUCAACCUCCAAUGCAUCCCACCACAUGAUGAUGCCUGAAGAGCCUUGGUUUUUUG | -0.611
3 | GAUCAAGCUGCCCUCAGAGCUCGAGAACGUCUUCGGAUGCAGAGGAGGCAGGCUUCGGUGGCGCGAUAGCGCCAACGUCCUCAACCUCCAAUGCAUCCCAUCACACGAUGAUGCCUGAAGAGCCUUGGUUUUUUG | -4.76
4 | GAUCAAUCUGCCCACAGAGCUCGAGAACAUCUUCGGAUGCAGAGGAGGCAGGCUUCGGUGGCGCGAUAGCGCCAACGUCCUCAACCUCCAAUGCAUCCCACCACAUGAUGUUGCCUGAAUAGCCUUGGUUUUUUG | -5.57
5 | GAUCAAUCAGCCCUCAGAGCUCGAGAACAUCUUCGGAUGCAGAGGAGGCAGGCUUCGGUGGCGCGAUACCGCCAACGUCCUAAACCUCCAAUGCAUCCCACCACAUGAUGAUGCCUGAAGAGCCUUGGUUUUUUG | -1.37
6 | GAUCAAUCUGCCCUCAGAGCUCGAGAACAUCUUCGGAUGCAGAGGAGGCAGGCUUCGGUGGCGCGAUAGCGCCAACGUCCUCAACCUCCAAAGCAUCCCACCACAUGAUGAUGCCUGAAGAGCCUUGGUUUUUUG | -2.91
7 | GAUCAAUCUGCCCUCAGAGCUCGAGAACAUCUUCGGAUGCAGAGGAGGCAGGCUUCGGUGGCGCGAUAGCGCCAACGUCCUCAACCUCCAAUGCAUCCCACCACAUGAUGAUGCCUGAAUAGCCUUGGUUUUUUG | -0.507
8 | GACAAAUCUGCCCUCCGAGCUCGAGAACAUCUUCGGAUGCAGAGGAGGCAGGCUUCGGUGGCGCGAUAGCGACAACGUCCUCAACCUCCAAUGCAUCCCAACACAUGAUGAUGCCUGAAGAGCUUUGGUAUUUUG | -4.51
9 | GAUCAAUCUGCCCUCAGAGCUCGAGAACAUCUUCGGAUGCAGAGGAGGCAGGCUUCGGUGGCGCGAUAGCGCCAACGUCCUCAACCUCCAAUGCAUCCCACCACAUGAUGAAGCCUGAAUAGCCGUGGUUUUUUG | -2.25
10 | GAUCAAUCCGCCCUCAGAGCUCGAGAACAUCUUCGGAUGCAGAGGAGGCAGGCUUCGGUGGCGCGAUAGCGCCAACGUCCUCAACCUGCAAUGCAUCCCACCACAUGAUGAUGCCCGAAGAGCCUUGGUUUUUUG | -0.482
11 | GAUCAAUCAGCCCUCAGAGCUCGAGAACAUCUUCGGAUGCAGAGGAGGCAGGCUUCGGUGGCGCGAUAGCGCCAACGUCCUCAACCUCCAAUGCAUCCCACCACAUGAUGAUGCCUGAAGAGACUUGGUUUUUUG | 1.32
12 | GAUCAAUCUGCCCUCAGAGCUCGAGAACAUCUUCGGAUGCAGAGGAGGCAGGCCUCGGUGACGCGAUAGCGCCAACGUCCUCAACCUCCCAUGCAUCCCACCACAUGAUGAUGCCUGAAGAGCCUUGGUUUUUUG | -0.844
13 | GAUCAAUCUGCCCUCAGAGCUCGAGAACAUCUUCGGAUGCAGAGGAGGCAGGCUUCGGGGGCGCGAUAGCGCCAACGUCCUCAACCUCCAAUGCAUCCCACCACAUGAUGAUACCUGAAGAGCCUUGGUUUUUUG | -1.89
14 | GAUCAAUCUGCCCUCAGAGCUCGAGAACAUCUUCGGAUGCAGAGGAGGCAGGCUUCGGUGGCGCGAUAGCGCCAACGUCCUCAACCUCCAAUGCAUCCCACCACAUGAUGAUGCCUGAAGAGCCUUGGUCUUUUG | 0.391
15 | GAUCAAGCUGCCCUCAGAGCUCGAGAACAUCUUCGGAUGCAUAGGAGGCAGGCUUCGGUGGCGCGAUAGCGCCAACGUCCUCAACCUCCAAUGCAUCCCACCACAUGAUGAUGCCUGAAGAGCCUUGGUUUUUUG | -1.73
16 | GAUCAAUCUGCCCUCAGAGCUCGAGAACAUCUUCGGAUGCAGAGGAGGCAGGCUUCGGUGGCCCGAUAGCGCCAACGUCCUCAACCUCCAAUGCAUCCCACCACAUGAUAAUGCCUGAAGAGCCUUGGUUUUUUG | -2.26
17 | GAUCAAUCUGCCCUCAGAGCUCGAGAACAUCUUCGGAUGCAGAGGAGGCAGGCUUCGGUGGCGCGAUAGCGCCAACGUCCUCAACCUCCAAUUCAUCCCACCACAUGAUGAUGCCUGAAGAGCCUUGGUUUUUUG | -1.95
18 | GAUCAAUCUGCCCUCAGAGCUCGAGAACAUCUUCGGAUGCAGAGGAGGCAGGCUUCGGUGGCGCGAUAGCGCCAACGUCCUCAACCUCCAAUGCAUCCCACCACAUGAGAAUGCCUGAAGAGCCUUGGUUUUUUG | -4.81
19 | GAUCAAUCUGCCCUCAGAGCUCGAGAACAUCUUCGGAUGCAGAGGAGGCAGGCUUCGGUGCCGCGAUAGCGCCAACGUCCUCAACCUCCAAUGCAUCCCACCACAUGAUGAUGCCUGAAGAGCCUUGGUUUUUUG | -2.38
20 | GAUCAAUCUGCCCUCAGAGCUCGAGAACAUCUUCGGAUGCAGAGGAGGCAGGCUUCGGUGGCGCGAUAGCGCCAACGCCCUCAACCUCCAAUGCAUCCCACCACAUGAUGAUGCCUGAAGAGCCUUGGUUUUUUG | 0.0101
21 | GAUCAAUCUGCCCUCAGAGCUCGAGAACAUCUUCGGAUGCAGAGGAGGCAGGCUUCGGUGGCGCGAUACCGCCAACGUCCUCAACCGCCAAUGCAUCCCACCACAUGAUGAUGCCUGAAGAGCAUUGGUUUUUUG | 0.486

Row | Variant | polymerase ribozyme fitness (log ratio)
22 | GACAUAUCUGCCCUGAGAGCUCGAGAACAUCUUCGGAUGCAGAGGAGGCAGGCUUCGGUGGCGCGAUAGCGCCAACGUCCUCAACCUUCAAUGCAUCCCACCACAUGAUGAUGCCUGAACAGCCUUGGUUUUUUG | -4.83
23 | GAUCAAUCUGCCCUCAGAGCUCGAGAACAUCUUCGGAUGCAGAGGAGGCAGGCGUCGGUGGCGCGAUAGCGCCAGCGUCCUCAACCUCCAACGCAUCCCACCACAUGAUGAUGCCUGAAGAGCCUUGGUUUUUUG | -2.3
24 | GAUCAAUCUGCCCUCAGAGCUCGAGAACAUCUUCGGAUGCAGAGGAGGCAGGCUUCGGUGUCGCGAUAGCGCCAACGUCGUCAACCUCCAAUGCAUCCCACCACAUGAUGAUGCCUGAAGAGCCUUGGUUUUUUG | -5.52
25 | GAUCAAUCUGCCCUCAGAGCUCGAGAACAUCUUCGGAUGCAGAGGAGGCAGGCUUCGGUGGCGCGAUAGCGCCAACGUCCUCAACCUCCAAUGCAUCCCACCACAUGAUGAUACCUGAAGAGCCUUGGUUUUUUG | -1.68
26 | GACAGAUCUGCCCUCAGAGCUCGAGAACAUCUUCGGAUGCAGAGGAGGCAGGCUUCGGUGGCGCGAUAGCGCCAACGUCCUCAACCUCCAAUGCAUCCCACCACAUGAUGCUGCCUGAAGAGCCUUGGUUUUUUG | -0.259
27 | GAUCAAUCUGCCCUCAGAGCUCGAGAACAUCUUCGGAUGCAGAGGAGGCAGGCUUCGGUGGCGCGAUAGCGCCAACGUCCUCAACCUCCAAUGCAUCCCACCACAUGAUGAUGCCUAAAGAGCCUAGGUUUUUUG | -5.16
28 | GAUCAAGCUGCCCUCAGAGUGCGAGAACAUCUUCGGAUGCAGAGGAGGCAGGCUUCGGUGGCGCGAUAGCUCCAACGUCCUCAACCUCCAAUGCAUCCCACCACAUGAUUAUGCCUGAAGAGCGUUGGUUUUUUG | -5.25
29 | GACAACUCUGCCCUCAGAGCUCGAGAACAUCUUCGGAUGCAGAGGAGGCAGGAUUCGGUGGCGCGAUAGCGCCAACGUCCUAAACCUCCAAUGCAUCCCACCACAUGAUGAUGCCUCAAGAGCCUUGGUUUUUUG | -7.24
30 | GAUCAAUCAGCCCUCAGAGCUCGAGAACAUCUUCGGUUGCAGAGGAGGCAGGCUUCGGUGGCGCGAUAGCGCCAACGUCCUCAACCUCCAAUGCAUCCCACCACAUGAUGAUACCUGAAGAGCCUUGGUUUUUUG | -0.314
31 | GAUCAAUCUGCCCUCAGAGCUCGAGAACAUCUUCGGAUGCAGAGGAGGCAGGCUUCGGUGGCGCGAUAGCUCCAACGUCCUCAACCUCCAAUGCAUCCCAGCACAUGAUGAUGCCUGAAGAGCCUUGGUUUUUUG | -3.08
32 | GAUCAAUCUGCCCUCAGAGCUCGAGAACAUCUUCGGAUGCAGAGGAGGCAGGCUUCGGUGGCACGAUAGCGCCAAUGUCCUCAACCUCCAAUGCAUCCCACCACAUGAUAAUGCCUGAAGAGCUUUGGUUUUUUG | -5.42
33 | GAUCAAUCUGCCCUCAGAGCUCGAGAACAUCUUCGGAUGCAGAGGAGGCAGGCUUCGGUGGCGCGAUAGCGCCAACGUCCUCAACCUCCAAUACAUCCCACUACAUGAUGAUGCCUGAAGAGCCUUGGUUUUUUG | -2.82
34 | GACAACUCUGCCCUCAGAGCUCGAGAACAUCUUCGGAUGCAGAGGCGGAAGGCUUCGGUGGCGCGAUAGCGGCAACGUCCUCACCCUCCAAUGCAUCCCACCACAUGAUGAUGCCUGAUGAGACUGGGUUUUUUG | -2.77
35 | GAUCAAUCUGCCCUCAGAGCUCGAGAACAUCUUCGGAUGCAGAGGAGGCAGGCUUCGGUGGCGCGAUAUCGCCAACGUCCUCAACCUCCAAUGCAUCCCACCACAUGAUGAUGCCUGAAGGGCCAUGGUUUUUUG | 2.91
36 | GAUCAAUCUGCCCUCAGAGCUCGAGAACAUCUUCGGAUGCAGAGGAGGCAGGCUUCGGUGGCGCGAUAGCGCCAACGUCCUCAACCUCCAAUGCAUCCCACCACAUAAUGAUGCCUGAAGAGCGUUGAUUUUGUG | -4.53
37 | GAUCAAUCUGCCCUCAGAGCUCGAGAACAGCUUCGGAUGCAGAGGAGGCAGGCUUCGGUGGCGCGAUAGCGCCAACGUCCUCAACCUCCAAUGCAUCCCACCACAUGAUGAUGCCUGAAGAGAUUUGGUUUUUUG | -5.14
38 | GAUCAAACUGCCCUCAGAGCUCGAGAACAUCUUCGGCUGCAGAGGAGGCAGGCUUCGGUGGCGCGAUAGCCCCAACGUCCUCAACCUCCAAUGCAUCCCACCACAUGAUGAUGCCUGAAGAGCCUUGGUUUUUUG | -0.976
39 | GAUCAAUCGGCCCUCAGAGCUCGAGAACAUCUUCGGAUGCAGAGGAGGCAGGCUUCGGUGGCGCGAUAGCGCCAACGUCCUCAACCUCCAAUGCAUCCCACCACAUGAUGAUGCCUGAAGAGCCUUGGUUUUUUG | 0.724
40 | GACAAAUCUGCCCUCAGCGCUCGAGAACAUCUUCGGAUGCAUAGGAGGCAGGCUUCGGUGGCGCGAUAGCGCCAACGUCCUCAACGUCCAAUGCAUCCCACCACAUGAUGAUGGCUGAAGAGCCUUGGUUUUUUG | -3.47
41 | GAUCAAUCUGCCCUCAGAGCUCGAGAACAUCUUCGGAUGCAGAGGAGGCAGGCUUCGGUGGCGCGAUACCGCCAACGUCCUCAACCUCCAAUGCAUCCCACCACAUGAUGAUGCCUGAAGAGCCUUGGUUUUUUG | -1.44
42 | GAUCAAUCUGCCCUCAGAGCUCGAGAACAUCUUCGGAUGCAGAGGAGGCAGGCUUCGGUGGCGCGAUAUCGCCAACGUCCUCAACCUCCAAUGCAUCCCACCACAUGAUGAUGCCUGAAGAGCCUUGGUUUUUUG | 0.198
